Measured values from the nanobody polyreactivity screen of Harvey et al. (2022).

Assay: yeast display, Sf9 membrane polyspecificity reagent, FACS + sequencing; frameworks hold sequencing errors
How it was run: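 Polyreactivity labels are assigned by the sorting gate from which each nanobody was recovered. The gates were low and high (top ~1%), set on anti-HA fluorescence for expression and streptavidin fluorescence for reagent binding. Before sorting, galactose-induced (36–48 hours) yeast display cells were stained for 1 hour at 4 °C with 10% biotinylated, detergent-solubilized Sf9 membrane reagent.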

Sequence | polyreactivity (PSR sort gate)
QVQLVESGGGLVNAGGSLRLSCAASGSTFYLYHMGWYRQAPGKEREFFARITWSGGSTYYADSVKGRFTLSRDNAKNTVYLQMNSLKPEDTAVYYCNKVYGQRNSYPDYDYWGQGSQVTVSS | high polyreactivity
QVQLVESGGGLVPAGGSLRLRCAASGSTFPYYAMGGYRQAPGKERELVAAIRRSGANTYYADSVKGRFTISRDNAKNTVYLQMNSLKPEDTAVYYCNVEYVISWWLYDYWGQGTQVTVSS | low polyreactivity
QVQLVESGGGLVPAGGSLRLRCAASGYIFRQNAMGWYRQAPGKERELVAVITARGGSTYYADSVKGRFTISRDNEKNTVYLQMNSLKPEDTAVYYCNARYYRRQYRGGAYWGQGTQVTVSS | low polyreactivity
QVQLVESGGGLVPAGGSLRLSCAASGFIFGGYAMGWYRQAPGKERELVADITTSGDSTYYADSVKGRFTISRDNAKNTVYLQMNSLKPEDTAVYYCNAKRSFRWTYGYWGQGTQVTVSS | high polyreactivity
QVQLVESGGGLVPAGGSLRLSCAASGFTFNSNAMGWYRQAPGKERELVAAISGSGGRTYYADSVKGRFTISRDNAKNTVYLQRNSLKPEDTAVYYCAADYPVRSYDYWGQGTQVTVSS | low polyreactivity
QVQLVESGGGLVPAGGSLRLSCAASGNIYRYYVMGWYRQAPGKEREFVAAITSSGGSTYYADSVKGRFTISRDNAKNTVYLQMNSLKPEDTAVYYCAKDYWDPGWAEYDDWGQGTQVTVSS | low polyreactivity
QVQLVESGGGLVPAGGSLRLSCAASGNNFRANTMGWYRQARGKERELVASIRRSGGSSYYADSVKGRFTISRDNAKNTVYLQMNSLKPEDTAAYYCAAESRPPYTDNYYWGQGTQVTVSS | high polyreactivity
QVQLVESGGGLVPAGGSLRLSCAASGRTLGYNAMGWYRQAPGKERELVAAISRGDSTNYADSVKGRFTISRDNAKNTVYLQMNSLKPEDTAVYYCAAAFPRYRSRAIRVDYWGQGTQVTVSS | high polyreactivity
QVQLVESGGGLVPAGGSLRLSCAASGSIFVKYALGRYRPAPGKERELVAAISRSGTRTYYADSVKGRFTISRDNAKNTVYLQMNSLKPEDTAVYYCAAAATTVRPYEYWGQGTQVTVSS | high polyreactivity
QVQLVESGGGLVPAGGSLRLSCAASGSNFYWYVMGWYRQAPGKERELVADIRYSPGRTYYADSVKGRFTISRDNAKNTVYLQMNSLIPEDTAVYYCKARRRLFTVDFDYWGQGTQVTVSS | high polyreactivity
QVQLVESGGGLVPAGGSLRLSCAASGSTFKIYAMGWYRQAPGKERELVARITSGGSTNYADSVKGRFTISRDNAKNTVYLQMNSLKPDDTAVYYCAARRWSYSTRGQRSTNLDYWGQGTQVTVSS | high polyreactivity
QVQLVESGGGLVPAGGSLRLSCAASGSTFPGYAMGWYRQAPGQERELVAAISTSGGRTYYADSVKGRFTISRDNAKNTVYLQMNSLKPEDTAVYYCARVAFYVAHGGFAFGRYYYWGQGTQVTVSS | low polyreactivity
QVQLVESGGGLVPARGSLRLSCAASGFTFYRYAMGCYRQAPGKERELVAAITSRSGITYYADSVKGRFTISRDNAKNTVYLQMNSLKPEDTAVYYCAAYVYRSTEFDYGYWGQGTQVTVSS | high polyreactivity
QVQLVESGGGLVPARGSLRLSCAASGIILRGYAMGWYRQSPGKERELVAAITYRGSSTYYADSVKGSFTISRDNAKNTVYLQMNSLKPEDTAVYYCGADRWLYAVITAGGGYWGQGTQVTVSS | high polyreactivity
QVQLVESGGGLVQAAASLRLSCPASGSTFRFYTMALYIQSPGTESDLVAAITRRGGITFYSDSVKWRFTISRDNAKNTVYLHMNSLKPEDTAVYDCAARFAYWGQDYYFWGQGSQVTVSS | high polyreactivity
QVQLVESGGGLVQAAGSLPLSCAASGSTLLNYAMGWYRQAPGKQSQLVAAISSSGGRTYYADSVKGRFTISRDNAKNTVYLQMNSLKPEDTAVYYCNKGLGYPKTFGYWGQGTQVTVSS | high polyreactivity
QVQLVESGGGLVQAAGSLRFSWAASRSIFRQYGMGWYRQAHGKERELVARISRRSGTTYYADSVKGRFTISRDYAKNTVYLQMNSLKPEDSAVSYCAAVPGWIHVDYWGQGTQVTVSS | high polyreactivity
QVQLVESGGGLVQAAGSLRLSCAASGLPSVDAMGWYRQAPGKERELVAAISLTGSSTYYADSVKGRFTISRDNAKNTVYLQRNSLKPEDTAVYYCAADSSYTPNDDNWGQGTQVTVSS | low polyreactivity
QVQLVESGGGLVQAAGSLRLSCAASGRISRTNAMGWYRQAPGKERQLVATINSGTGTNYADSVKGRFTISRDNAKNTVYLQMNSLKPEDTEVYYCAARYRYWPKYYPVSYRYDYWGQGTQVTVSS | low polyreactivity
QVQLVESGGGLVQAAGSLRLSCAASGRTFYRNAMGWYRQAPGKERELVAAISQSGGSTYYADSVKGRFTISRDNAKNTVYLQMNSLKPEDTAVYYWAAGNSRRVGMDYWGQGTQVTVSS | high polyreactivity
QVQLVESGGGLVQAAGSLRLSCAASGSIFRPYAMGWYRQAPGKERELVATITSRGGSTYYADSVKGRFTISRDNAKNTVYLQMNSMKPEDTAVYYCAARYISSYGRTQDYSRYDYWGQGTQVNVSS | high polyreactivity
QVQLVESGGGLVQAAGSLRLSCAASGSIFVSYAMGWYRPAPWKEREFVATINYSGGSSYYADSVKGRFTISRDNAKNTVYLQMNSLKPEDTAVYYCAARPYHHGYWLNYGYWGQGTQVTVSS | high polyreactivity

Sequence | polyreactivity (PSR sort gate)
QVQLVESGGGLVQAAGSLRLSCAASGSTFTLNAMGWNRQAPGKERELVAAITSGGRTKYADSVKGRFTISRDNAKNTVYLQMNSLKPEDTAVYYCAATFAGGYGYWGQGTQVTVSS | high polyreactivity
QVQLVESGGGLVQAGASLRLSCAASGFIFGKYAMGWYRQAPGKERELVAAISSSGGSTYYADSVKGRFTISRDTAKNTVYLQMNSLKPEDTAGYYCNAKVRGTNTAGVDYWGQGTQVTVSS | high polyreactivity
QVQLVESGGGLVQAGASLRLSCAASGFIYSFNTMGWYRQAPGKERELVAAITSGGSTNYADSVKGRFTISRDNAKNTVYLQMNSLKPEDTAVYYCNRQYYSYYGNDYWGQGTQVTVSS | high polyreactivity
QVQLVESGGGLVQAGASLRLSCAASGFTFVHYALGWYRQAPGKERELVAAITWNGGRTYYADSVQGRFTISRDNAKNTVYFQMNSLKPEDTAVYYCNAVRITYGRYDLDYWGQGTQVTVSS | high polyreactivity
QVQLVESGGGLVQAGASLRLSCAASGGTFLIYGRGWYRQAPGKERELVAAISRSGGSTYYADSVKGRFTISRDNAKNTVYLQMNSLKPEDTAVYYCAADSGYLSPYDYWGQGTQVTVSS | low polyreactivity
QVQLVESGGGLVQAGASLRLSCAASGIIFPRYAMGWSRQAPGKERDLVAAISYSGGSTYYADSVKGRFTISRDNAKNTVYLQMNSLKPEDPAVYYCAAKWGWKVGYSYYYWGQGTQVTVSS | high polyreactivity
QVQLVESGGGLVQAGASLRLSCAASGITFYSYGMGWYRQAPGKERELVAAISGSGTTTYADSVKGRFTISRDNAKNPVYLQMNSLKPEDTAVYYCAAVARYPRWHHYYWGQGTQVTVSS | low polyreactivity
QVQLVESGGGLVQAGASLRLSCAASGLTYSHYAMGWYRQAPGKERQLVAGISSRGGNTYYADSVKGRFTISRDNAKNTVYLQMNSLKPEDTAVYYCNAPKPKRAYDYWGQGTQVTVSS | high polyreactivity
QVQLVESGGGLVQAGASLRLSCAASGRTFGGYAMGWYRQAPGKERQLVAAISSSGTGTSYADSVKGRFTISRDNAKNTVYFEMNSLKPEDTAVYYCAARSSRTVLSIQDDDYWGQGTQVTVSS | low polyreactivity
QVQLVESGGGLVQAGASLRLSCAASGRTFYRYAMGWYRQAPGKEREFVAAISNGGSNTRYADSVKGRFTISRDTAKNNVYFQMNSLKPEETAVYYCAARAYQHYNWGQGTQVTVSS | high polyreactivity
QVQLVESGGGLVQAGASLRLSCAASGSIFGGYAMGWYRQAPGKERELVAAISRSGRTNYADSVKGRFTISRDNAKNTVYLQMNSLKPEDTAVYYCAVDKRYGRVVGRDYDYWGQGTQVTVSS | high polyreactivity
QVQLVESGGGLVQAGASLRLSCAASGSISKSYAMGWYRQAPGKERELVAAISWRGGSTYADSVKGRFTISRDNAKNTVYLQMNSLKPEDTAVYYCAATNYGTFWGGQSERYDYWGQGTQLTVSS | low polyreactivity
QVQLVESGGGLVQAGASLRLSCAASGSNSKSYAMGWYRPAPGKERELVAAISWRGGSTYADSVKGRFTNSRDNAKNTVYFQMNSQKPVDTAVYYWAATNYGTFWGGQSERYDYWGQGTQVTVSS | low polyreactivity
QVQLVESGGGLVQAGASLRLSCAASGSTFDRNVMGWYRQAPGKERELVAAISRVSSTNYADSVKGRFTISRDNAKNTVYLQMNSLKPEDTAVYYCAADRAGSIMNYWGQGTQVTVSS | low polyreactivity
QVQLVESGGGLVQAGASLRLSCAASGSTFGSYTMGWYRQAPWKERELVAAINWTGGNTYYADSVKGRFTISRDYAKNTVYLQMNSLKPEDTAVYYCAAAFYIYGVEGDYWGQGTQVTVSS | low polyreactivity
QVQLVESGGGLVQAGASLRLSCAASGSTFKYYTMGWYRQAPGKERELVAAISFSGARTYYADSVKGRFTISRDNAKNTVYLQMNSLKPEDTAVYYCAKDRQYYYWGQGTQVTVSS | high polyreactivity
QVQLVESGGGLVQAGASLRLSCAASGYIYPKYGMGWYIQAPGKERELVAAITGSGGSTYYADSVMGRITISRDNAKNTVYLHMNSLKPEDTAVYYCAKRSWIEYDYWGQGTQVTVSS | low polyreactivity
QVQLVESGGGLVQAGASLRLSCAASVIIFKIYAMGWYRQAPGKERELVAAITRSGTRTYYADSVKGRFTISRDNAKNTVYLQMNSLKPEDTAVYYCNAYTTLAYDLDYWGQGTQVTVSS | high polyreactivity
QVQLVESGGGLVQAGASLSLSCAASGRTFGGNAMGWYRQAPGKEREFVAAISRSGTSTYYADSVKGRFTISRDNAKNTVYFQMNSLKPEATAVYYCAALNYLKFAHKYDYWGQGTQVTVSS | low polyreactivity
QVQLVESGGGLVQAGCILRLSCASSGIIFSYAMGWYRQAPGKESELVAAISGRDGSTYYADSVKGRFTISRDNAKNTVYLQMNSLKPEDTAVYYCAKRISYLPVEMDYWGHGTQVTVSS | low polyreactivity
QVQLVESGGGLVQAGCRLRLSCAASGRTFFPYAMGWYRQAPGKERELVAAITTGDITNYADSVKGRFTISRDNAKNTVYLQMNSLKPEDTAVYYCAARGYASWSYGGYPLKLDYWGQGTQVTVSS | low polyreactivity
